From patent US20130330358

What was measured:
[1] = system: T1, vIRF4^202-216 peptide (vif1); assay: competitive ITC: vIRF4^202-216 titrated into TRAF pre-titrated with p53^350-364 (competitor)
T1 sequence: SVWIPVNEGASTSGM

[2] = system: T1, vIRF4^202-216 peptide (vif1); assay: competitive ITC: vIRF4^202-216 titrated into TRAF pre-titrated with p53^355-369 (competitor)
[3] = system: T1, vIRF4^202-216 peptide (vif1); assay: competitive ITC: vIRF4^202-216 titrated into TRAF pre-titrated with MDM2^137-152 (competitor)

Sequence of HAUSP TRAF domain (HAUSP^62-205) (Q93009 62-205): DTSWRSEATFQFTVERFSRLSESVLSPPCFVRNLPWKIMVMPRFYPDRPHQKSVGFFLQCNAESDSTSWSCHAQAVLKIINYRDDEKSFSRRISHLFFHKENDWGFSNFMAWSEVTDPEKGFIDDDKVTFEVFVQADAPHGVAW

HAUSP TRAF domain (HAUSP^62-205)
Kobs (observed association constant) [1]: 4.42e+07 M⁻¹ | Kobs (observed association constant) [2]: 3.58e+07 M⁻¹ | Kobs (observed association constant) [3]: 1.09e+07 M⁻¹
